Data reported in paper PMC4912689, “The Extracellular Surface of the GLP-1 Receptor Is a Molecular Trigger for Biased Agonism” (Cell, 2016).
Where a chain is given by its changes, count along the chain named. Numbers in names are those of the source. Entries after “also recorded” stand apart in the source; their conditions may differ.

B1: glucagon-like peptide 1 receptor (GLP-1R), wild-type, P43220 L307A (protein)
chain: RPQGATVSLWETVQKWREYRRQCQRSLTEDPPPATDLFCNRTFDEYACWPDGEPGSFVNVSCPWYLPWASSVPQGHVYRFCTAEGLWLQKDNSSLPWRDLSECEESKRGERSSPEEQLLFLYIIYTVGYALSFSALVIASAILLGFRHLHCTRNYIHLNLFASFILRALSVFIKDAALKWMYSTAAQQHQWDGLLSYQDSLSCRLVFLLMQYCVAANYYWLLVEGVYLYTLLAFSVLSEQWIFRLYVSIGWGVPLLFVVPWGIVKYLYEDEGCWTRNSNMNYWAIIRLPILFAIGVNFLIFVRVICIVVSKLKANLMCKTDIKCRLAKSTLTLIPLLGTHEVIFAFVMDEHARGTLRFIKLFTELSFTSFQGLMVAILYCFVNNEVQLEFRKSWERWRLEHLHIQRDSSMKPLKCPTSSLSSGATAGSSMYTATCQASCS
B2: glucagon-like peptide 1 receptor (GLP-1R), wild-type, P43220 N304A (protein)
chain: B1 chain with N281A, A284L
B3: glucagon-like peptide 1 receptor (GLP-1R), wild-type, P43220 R380A (protein)
chain: B1 chain with A284L, R357A
B4: glucagon-like peptide 1 receptor (GLP-1R), wild-type, P43220 G285A (protein)
chain: B1 chain with G262A, A284L
B5: glucagon-like peptide 1 receptor (GLP-1R), wild-type, P43220 W297A (protein)
chain: B1 chain with W274A, A284L
B6: glucagon-like peptide 1 receptor (GLP-1R), wild-type, P43220 F381A (protein)
chain: B1 chain with A284L, F358A
B7: glucagon-like peptide 1 receptor (GLP-1R), wild-type, P43220 D215A (protein)
chain: B1 chain with D192A, A284L
B8: glucagon-like peptide 1 receptor (GLP-1R), wild-type, P43220 Q210A (protein)
chain: B1 chain with Q187A, A284L
B9: glucagon-like peptide 1 receptor (GLP-1R), wild-type, P43220 H212A (protein)
chain: B1 chain with H189A, A284L
B10: glucagon-like peptide 1 receptor (GLP-1R), wild-type, P43220 Y291A (protein)
chain: B1 chain with Y268A, A284L
B11: glucagon-like peptide 1 receptor (GLP-1R), wild-type, P43220 I382A (protein)
chain: B1 chain with A284L, I359A
B12: glucagon-like peptide 1 receptor (GLP-1R), wild-type, P43220 K288A (protein)
chain: B1 chain with K265A, A284L
B13: glucagon-like peptide 1 receptor (GLP-1R), wild-type, P43220 T298A (protein)
chain: B1 chain with T275A, A284L
B14: glucagon-like peptide 1 receptor (GLP-1R), wild-type, P43220 S219A (protein)
chain: B1 chain with S196A, A284L
B15: glucagon-like peptide 1 receptor (GLP-1R), wild-type, P43220 M303A (protein)
chain: B1 chain with M280A, A284L
B16: glucagon-like peptide 1 receptor (GLP-1R), wild-type, P43220 L290A (protein)
chain: B1 chain with L267A, A284L
B17: glucagon-like peptide 1 receptor (GLP-1R), wild-type, P43220 V287A (protein)
chain: B1 chain with V264A, A284L
B18: glucagon-like peptide 1 receptor (GLP-1R), wild-type, P43220 D293A (protein)
chain: B1 chain with D270A, A284L
B19: glucagon-like peptide 1 receptor (GLP-1R), wild-type, P43220 T207A (protein)
chain: B1 chain with T184A, A284L
B20: glucagon-like peptide 1 receptor (GLP-1R), wild-type, P43220 N302A (protein)
chain: B1 chain with N279A, A284L
B21: glucagon-like peptide 1 receptor (GLP-1R), wild-type, P43220 Q211A (protein)
chain: B1 chain with Q188A, A284L
B22: glucagon-like peptide 1 receptor (GLP-1R), wild-type, P43220 K202A (protein)
chain: B1 chain with K179A, A284L
B23: glucagon-like peptide 1 receptor (GLP-1R), wild-type, P43220 E294A (protein)
chain: B1 chain with E271A, A284L

How the values were obtained:
human GLP-1R R190A = experiment: cAMP production at R190A mutant; format: cell-based; settings: Figure S3
Description: For cAMP assays, cells were stimulated for 30 min in the presence of the phosphodiesterase inhibitor IBMX and then lysed.
Dulbecco’s Modified Eagle’s Medium (DMEM) and Fluo-4 AM were purchased
from Invitrogen (Carlsbad, CA, USA). Foetal bovine serum (FBS) was purchased from Thermo
Electron Corporation (Melbourne, VIC, Australia). AlphaScreen reagents, 384-well opti and
proxiplates were purchased from PerkinElmer Life and Analytical Sciences (Waltham, MA, USA).
All other reagents were purchased from
Sigma-Aldrich (St. Louis, MO, USA) or BDH Merck (Melbourne, Vic, Australia) and were of an
Receptor mutagenesis. To study the influence of ECL amino acids, and R190 on receptor function,
the desired mutations were introduced to an N-terminally double c-myc labeled wild-type human GLP-
1R in the pEF5/FRT/V5-DEST destination vector (Invitrogen); this receptor had equivalent
Mutagenesis was carried out using oligonucleotides for
site-directed mutagenesis purchased from GeneWorks (HindMarsh, SA, Australia) and the
QuikChangeTM site-directed mutagenesis kit (Stratagene) and confirmed by automated sequencing
Cell culture: Stable transfections; Wild-type and mutant human GLP-1Rs were isogenically
integrated into FlpIn-Chinese hamster ovary (FlpInCHO) cells (Invitrogen) and selection of receptor-
expressing cells accomplished by treatment with 600 µg ml-1 hygromycin-B as previously described […]

human GLP-1R wildtype [1] = biological target: T1, human GLP-1R wildtype (Homo sapiens, UniProt P43220); experiment: cAMP accumulation; format: cell-based; settings: normalized to forskolin; n=3, duplicate; Figure S7
T1 sequence (P43220 24-463): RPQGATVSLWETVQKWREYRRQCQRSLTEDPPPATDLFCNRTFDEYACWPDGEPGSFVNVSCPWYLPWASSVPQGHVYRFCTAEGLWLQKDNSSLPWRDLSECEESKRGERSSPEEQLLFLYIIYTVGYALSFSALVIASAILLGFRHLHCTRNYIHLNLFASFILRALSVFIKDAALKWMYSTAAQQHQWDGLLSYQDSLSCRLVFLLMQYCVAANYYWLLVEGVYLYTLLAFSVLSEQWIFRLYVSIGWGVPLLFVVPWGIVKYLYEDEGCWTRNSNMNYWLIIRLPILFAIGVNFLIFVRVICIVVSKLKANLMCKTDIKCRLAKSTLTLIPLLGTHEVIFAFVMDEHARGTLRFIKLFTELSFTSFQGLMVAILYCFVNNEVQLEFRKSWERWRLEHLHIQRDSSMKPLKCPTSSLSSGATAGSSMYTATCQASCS

human GLP-1R wildtype [2] = biological target: T1, human GLP-1R wildtype; experiment: ERK1/2 phosphorylation; format: cell-based; settings: normalized to FBS; n=3, duplicate; Figure S7
exendin-4, P26349 = experiment: radioligand inhibition binding (competition with 125I-exendin-4(9-39)); settings: chain shown with the change;; read off a plot

Row | Molecule | log10 ratio (exendin-4, P26349) | other results
1 | modified oxyntomodulin: oxyntomodulin with Q^3 substituted with E (HSEGTFTSDYSKYLDSRRAQDFVQWLMNTKRNRNNIA; Oxyntomodulin; UniProt P01275 53-89, looked up, variant Q3E) | – | requirement of R190 for cAMP production (human GLP-1R R190A): required for cAMP production
2 | GLP-1(9-36)NH2 | – | cAMP response (human GLP-1R wildtype [1]): unable to activate the cAMP pathway; also recorded: unable to generate a cAMP response; pERK1/2 response (human GLP-1R wildtype [2]): can still promote pERK1/2; also recorded: maintains the ability to promote pERK1/2
3 | B1 | -0.8 ΔpKi | –
4 | B2 | -0.4 ΔpKi | –
5 | B3 | -1.5 ΔpKi | –
6 | B4 | -0.1 ΔpKi | –
7 | B5 | -1.8 ΔpKi | –
8 | B6 | -0.35 ΔpKi | –
9 | B7 | -0.25 ΔpKi | –
10 | B8 | -0.25 ΔpKi | –
11 | B9 | 0.3 ΔpKi | –
12 | B10 | -0.45 ΔpKi | –
13 | B11 | -0.15 ΔpKi | –
14 | B12 | -1.9 ΔpKi | –
15 | B13 | -0.1 ΔpKi | –
16 | B14 | -0.15 ΔpKi | –
17 | B15 | -0.7 ΔpKi | –
18 | B16 | -0.4 ΔpKi | –
19 | B17 | -0.25 ΔpKi | –
20 | B18 | -1.1 ΔpKi | –
21 | B19 | -0.2 ΔpKi | –
22 | B20 | -1.2 ΔpKi | –
23 | B21 | -0.2 ΔpKi | –
24 | B22 | -0.25 ΔpKi | –
25 | B23 | 0.1 ΔpKi | –
